Assay results as given in patent publication US8865648B2, “Monomeric and dimeric forms of adiponectin receptor fragments and methods of use” (Siemens Healthcare Diagnostics Inc., priority 2009, dated 2014).
Blank lines part the entries; values can stand above or below the molecule they belong to. Bridge positions count the residues as written; N and C are the ends. Ends that are not written are not given here. I, II: the chains in the order shown.

Columns and labels:
ADAM-17 = ADAM-17 (Homo sapiens, UniProt P78536); experiment: Inhibition of enzymes: ADAM-17 inhibition; type: biochemical; conditions: ADAM-17 at level of 400 ng/ml
Protocol: (§1) Inhibition of insulin degradation enzyme (IDE) is a biological function of CTF. The inhibition reduces insulin degradation in the liver and other tissues and thereby increases insulin levels in the blood. The enzymes for cleavage of the dimers are also potential therapeutic targets. Each of the peptides synthesized in Example 1 was tested for their effect on cleavage and target enzymes (ADAM-17 and IDE at level of 400 ng/ml).

[1] = biological target: insulin degradation enzyme (IDE) (Homo sapiens, UniProt P14735); experiment: Inhibition of enzymes: insulin degradation enzyme (IDE) inhibition; type: biochemical; conditions: for IDE Inhibition (90% inhibition at): IDE at level of 400 ng/ml, peptide level giving 90% inhibition
Protocol: as §1

[2] = when administered to patients; cited from earlier work

ADAM-17, sequence (P78536 215-824): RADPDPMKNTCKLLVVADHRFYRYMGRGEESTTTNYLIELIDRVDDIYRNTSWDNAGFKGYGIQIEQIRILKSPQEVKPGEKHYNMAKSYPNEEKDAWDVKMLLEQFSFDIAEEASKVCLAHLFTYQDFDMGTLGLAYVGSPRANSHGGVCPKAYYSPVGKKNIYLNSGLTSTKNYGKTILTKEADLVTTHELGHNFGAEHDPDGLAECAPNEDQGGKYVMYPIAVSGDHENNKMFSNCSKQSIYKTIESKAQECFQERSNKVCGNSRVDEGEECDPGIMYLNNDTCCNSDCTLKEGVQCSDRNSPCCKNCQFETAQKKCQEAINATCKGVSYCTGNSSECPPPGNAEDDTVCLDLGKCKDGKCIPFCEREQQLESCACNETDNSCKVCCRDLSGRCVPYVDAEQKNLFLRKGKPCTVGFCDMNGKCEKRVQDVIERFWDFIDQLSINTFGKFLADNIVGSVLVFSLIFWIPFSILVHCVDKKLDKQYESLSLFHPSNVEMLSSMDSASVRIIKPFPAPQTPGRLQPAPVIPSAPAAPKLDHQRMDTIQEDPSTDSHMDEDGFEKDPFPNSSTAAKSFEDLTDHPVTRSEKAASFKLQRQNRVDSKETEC

Molecule: LQEFRYGLEGGCTDDTLL [R1 CTF17]
- ADAM-17 Inhibition (observed) (ADAM-17): Negative
- IDE Inhibition (90% inhibition at) [1]: negative

Molecule: R1 CTF25 R2 CTF25: SEQ ID NO:5 linked via a disulfide bond to SEQ ID NO:6 (chain 1 HFYGVSNLQEFRYGLEGGCTDDTLL; chain 2 HFHGVSNLQEFRFMIGGGCSEEDAL; disulfide I:19-II:19 (inferred))
- ADAM-17 Inhibition (observed) (ADAM-17): Negative

Molecule: GGCTDDTLL [R1 CTF9]
- ADAM-17 Inhibition (observed) (ADAM-17): Negative
- IDE Inhibition (90% inhibition at) [1]: negative

B1: R1 CTF32 R2 CTF32: SEQ ID NO:1 linked via a disulfide bond to SEQ ID NO:2 (peptide)
chain 1: VVAAAFVHFYGVSNLQEFRYGLEGGCTDDTLL
chain 2: VVAGAFVHFHGVSNLQEFRFMIGGGCSEEDAL
modifications: disulfide I:26-II:26 (inferred)
- ADAM-17 Inhibition (observed) (ADAM-17): Positive
- activity of heterodimer compared with corresponding homodimers ([1]; comparison drawn from the data in TABLE 2): more active than the corresponding homodimers

B2: R2 CTF32 R2 CTF32: SEQ ID NO:2 linked via a disulfide bond to SEQ ID NO:2 (peptide)
chain 1: B1 chain 2
chain 2: B1 chain 2
modifications: disulfide I:26-II:26 (inferred)
- ADAM-17 Inhibition (observed) (ADAM-17): Positive

B3: R1 CTF32 R1 CTF32: SEQ ID NO:1 linked via a disulfide bond to SEQ ID NO:1 (peptide)
chain 1: B1 chain 1
chain 2: B1 chain 1
modifications: disulfide I:26-II:26 (inferred)
- ADAM-17 Inhibition (observed) (ADAM-17): Positive

More lines, main results first:

- ADAM-17 Inhibition (observed) (ADAM-17): Positive
Molecule: VVAGAFVHFHGVSNLQEFRFMIGGGCSEEDAL [R2 CTF32, C-terminal fragment of ADIPOR2, 32 amino acids]

- ADAM-17 Inhibition (observed) (ADAM-17): Negative
Molecule: HFYGVSNLQEFRYGLEGGCTDDTLL [R1 CTF25]

- ADAM-17 Inhibition (observed) (ADAM-17): Negative
- IDE Inhibition (90% inhibition at) [1]: Negative
Molecule: HVLVVAAAFVHFYGVSNLQEFRYGLEGGCT [R1 CTF30]

- ADAM-17 Inhibition (observed) (ADAM-17): Positive
Molecule: VVAAAFVHFYGVSNLQEFRYGLEGGCTDDTLL [R1 CTF32, C-terminal fragment of ADIPOR1, 32 amino acids]
- insulin-sensitizing effect [2]: acted as an insulin-sensitizing agent

- ADAM-17 Inhibition (observed) (ADAM-17): Negative
- IDE Inhibition (90% inhibition at) [1]: Negative
Molecule: GGCSEEDAL [R2 CTF9]

- ADAM-17 Inhibition (observed) (ADAM-17): Negative
Molecule: HFHGVSNLQEFRFMIGGGCSEEDAL [R2 CTF25]
